Results on three molecules are retold here after US20220162261A1 (published 2022).

Bridge positions count the residues as written; N and C are the ends. Square brackets hold non-standard residues; d marks the D form. 2Nal = N[C@@H](Cc1ccc2ccccc2c1)C(=O)O; NMeR = CN[C@@H](CCCNC(=N)N)C(=O)O; Pen = CC(C)(S)[C@H](N)C(=O)O

Assay [1] deals with rh integrin α4β7 (R&D Systems #5397-A30) (human) (UniProt P13612). Nature of the assay: competition ELISA vs MAdCAM-1. On the technique in general: An ELISA detects its analyte on a solid surface through an enzyme-linked reagent.
The target in assay [2] is human α4β1 integrin on cells (human) (UniProt P13612). Nature of the assay: Jurkat cell adhesion to VCAM-1.
Assay [3] has as its target human α4β7 integrin on cells (human) (UniProt P13612). Nature of the assay: RPMI8866 cell adhesion to MAdCAM-1.
In assay [4] the target is mouse α4β7 integrin on TK1 cells (mouse) (UniProt Q00651). The assay can be described thus: TK1 cell adhesion to MAdCAM-1.
Sequence of mouse α4β7 integrin on TK1 cells (mouse) (Q00651 41-1039, chain 1 of 2): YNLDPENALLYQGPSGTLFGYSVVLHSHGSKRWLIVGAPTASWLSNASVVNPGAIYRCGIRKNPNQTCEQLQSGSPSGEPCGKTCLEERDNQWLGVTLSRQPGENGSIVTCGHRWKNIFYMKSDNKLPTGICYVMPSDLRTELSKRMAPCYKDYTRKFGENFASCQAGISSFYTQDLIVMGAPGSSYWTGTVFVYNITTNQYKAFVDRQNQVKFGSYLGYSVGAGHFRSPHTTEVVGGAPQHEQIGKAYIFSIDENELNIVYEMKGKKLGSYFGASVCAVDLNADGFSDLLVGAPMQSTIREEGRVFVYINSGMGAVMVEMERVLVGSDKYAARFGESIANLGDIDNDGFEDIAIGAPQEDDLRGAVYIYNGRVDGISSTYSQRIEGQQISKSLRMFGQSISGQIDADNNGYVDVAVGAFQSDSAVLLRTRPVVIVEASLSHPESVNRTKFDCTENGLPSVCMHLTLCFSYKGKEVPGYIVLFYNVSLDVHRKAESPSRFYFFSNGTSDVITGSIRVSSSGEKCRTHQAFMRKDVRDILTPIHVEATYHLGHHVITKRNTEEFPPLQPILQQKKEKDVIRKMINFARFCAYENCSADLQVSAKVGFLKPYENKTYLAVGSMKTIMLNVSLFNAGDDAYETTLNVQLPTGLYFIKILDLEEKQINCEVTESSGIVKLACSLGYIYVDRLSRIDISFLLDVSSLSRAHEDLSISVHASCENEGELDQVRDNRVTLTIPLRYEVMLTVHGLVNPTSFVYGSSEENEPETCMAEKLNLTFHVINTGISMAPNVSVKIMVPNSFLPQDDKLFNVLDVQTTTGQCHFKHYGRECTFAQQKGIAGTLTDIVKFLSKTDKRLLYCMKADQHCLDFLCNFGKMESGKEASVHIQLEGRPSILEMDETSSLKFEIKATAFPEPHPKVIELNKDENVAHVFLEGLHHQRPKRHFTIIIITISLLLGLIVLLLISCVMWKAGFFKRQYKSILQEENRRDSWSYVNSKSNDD
Sequence of mouse α4β7 integrin on TK1 cells (mouse) (P26011 20-806, chain 2 of 2, further chain): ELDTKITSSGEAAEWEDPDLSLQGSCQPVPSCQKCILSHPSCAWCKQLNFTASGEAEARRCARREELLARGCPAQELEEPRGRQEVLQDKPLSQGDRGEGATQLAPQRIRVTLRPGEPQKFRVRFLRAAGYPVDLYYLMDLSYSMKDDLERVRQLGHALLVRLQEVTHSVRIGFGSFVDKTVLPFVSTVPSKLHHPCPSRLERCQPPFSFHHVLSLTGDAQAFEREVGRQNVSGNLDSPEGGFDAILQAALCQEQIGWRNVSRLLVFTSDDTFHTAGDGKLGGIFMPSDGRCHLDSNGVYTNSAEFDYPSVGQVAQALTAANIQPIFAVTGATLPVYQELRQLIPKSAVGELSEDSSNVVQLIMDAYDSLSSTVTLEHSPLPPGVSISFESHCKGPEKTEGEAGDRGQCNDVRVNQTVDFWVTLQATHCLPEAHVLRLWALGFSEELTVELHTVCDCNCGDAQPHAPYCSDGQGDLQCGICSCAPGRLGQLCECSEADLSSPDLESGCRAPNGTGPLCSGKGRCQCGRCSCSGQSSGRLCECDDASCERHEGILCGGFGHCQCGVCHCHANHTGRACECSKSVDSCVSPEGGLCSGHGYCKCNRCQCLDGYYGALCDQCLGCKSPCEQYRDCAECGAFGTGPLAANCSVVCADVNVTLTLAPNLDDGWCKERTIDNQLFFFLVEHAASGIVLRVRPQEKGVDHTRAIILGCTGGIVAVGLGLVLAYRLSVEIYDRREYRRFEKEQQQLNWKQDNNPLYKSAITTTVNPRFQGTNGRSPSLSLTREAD
The target in assay [5] is α4β1 (R&D Systems #5668-A4) (UniProt P13612). The assay can be described thus: competition ELISA vs VCAM-1.
In assay [6] the target is human α4β7 integrin on cells (human) (UniProt P13612). Nature of the assay: FACS, human whole blood, CD4 naïve T cells. On the technique in general: Flow cytometry measures light scatter and fluorescence of single cells or particles in a stream.
For assay [7] the target is unchanged. The assay can be described thus: FACS, human whole blood, Neutrophils.
Assay [8] shares this target. The assay can be described thus: FACS, human whole blood, Monocytes.
For assay [9] the target is unchanged. The assay can be described thus: FACS, human whole blood, Basophils.
Assay [10] shares this target. The assay can be described thus: FACS, human whole blood, Eosinophils.
The target is the same in assay [11]. The assay can be described thus: FACS, human whole blood, CD19+ B cells.
The target is the same in assay [12]. The assay can be described thus: FACS, human whole blood, CD4 memory T cells.
The target is the same in assay [13]. Nature of the assay: FACS, human whole blood, CD8 naïve T cells.
The target is the same in assay [14]. The assay can be described thus: FACS, human whole blood, CD8 memory T cells.
The target is the same in assay [15]. The assay can be described thus: FACS, human whole blood, NK cells CD16+ 56+.
For assay [16], the target named is soluble α4β7 integrin (UniProt P13612). The assay can be described thus: SPR, binder on streptavidin chip, soluble α4β7. (In SPR one partner is held on a chip, and binding of the other changes the refractive index at the surface.)
Assay [17] concerns the target human α4β7 integrin on cells (human) (UniProt P13612). The assay can be described thus: PBMC memory T cell adhesion.

B1: SEQ ID NO: 212 (peptide)
peptide: Ac-[Pen][NMeR]SDTL[Pen][2Nal]E[dK]-NH2
modifications: disulfide 1-7; also: dimer (…)2 DIG, attachment not given here
As for B1, the IC50 in [1] is 0.002 µM; in assay [2], over 100 µM; in assay [3], 0.0025 µM; in assay [4] it was 0.0025 µM; in assay [5], 0.07 µM.

B2: biotin-labeled vedolizumab antibody (antibody, INN chains, looked up, V domains shown)
VH: QVQLVQSGAEVKKPGASVKVSCKGSGYTFTSYWMHWVRQAPGQRLEWIGEIDPSESNTNYNQKFKGRVTLTVDISASTAYMELSSLRSEDTAVYYCARGGYDGWDYAIDYWGQGTLVTVSS
VL: DVVMTQSPLSLPVTPGEPASISCRSSQSLAKSYGNTYLSWYLQKPGQSPQLLIYGISNRFSGVPDRFSGSGSGTDFTLKISRVEAEDVGVYYCLQGTHQPYTFGQGTKVEIKR
modifications: biotin label
In the case of B2, the Percent positive staining came out at 55% in [6]; 0.45% in [7]; 7% in assay [8]; 86% in assay [9]; 91% in assay [10]; 85% in [11]. Also, the Percent positive staining in [12] amounted to 22%; in assay [13] it was 53%; in assay [14], 36%; in [15] it was 42%. The Half-life for dissociation in assay [16] worked out at 43 min. This molecule also registered a Kd in [16] of 0.0595 µM. Besides, in [16], the koff is 0.000266 s⁻¹. In [16], the kon worked out at 4470 M⁻¹ s⁻¹.

B3: SEQ ID NO: 210 (peptide)
peptide: Ac-[Pen][NMeR]SDTL[Pen][2Nal]E[dK]-NH2
modifications: disulfide 1-7
SMILES: CC(=O)N[C@@H]1C(=O)N(C)[C@@H](CCCNC(=N)N)C(=O)N[C@@H](CO)C(=O)N[C@@H](CC(=O)O)C(=O)N[C@@H]([C@@H](C)O)C(=O)N[C@@H](CC(C)C)C(=O)N[C@H](C(=O)N[C@@H](Cc2ccc3ccccc3c2)C(=O)N[C@@H](CCC(=O)O)C(=O)N[C@H](CCCCN)C(N)=O)C(C)(C)SSC1(C)C
As to B3, the IC50 is 0.011 µM in [1]; over 100 µM in assay [2]; 0.04 µM in [3]; 0.06 µM in [4]; 0.2 µM in assay [5]; 0.517 µM in assay [17].

One may read the IC50 as the midpoint of a concentration-inhibition curve. High values mean weaker potency in that assay, low ones greater potency in that assay. As usually defined, the Kd is the free concentration of one partner at which half of the binding sites on the other are occupied at equilibrium, for simple one-to-one binding. Read a low Kd as tighter binding. By koff is commonly meant a measure of how fast the partners let go of each other. High values mean fast dissociation, low ones slow dissociation. One may read the kon as the rate constant with which the complex forms. Low readings indicate slow association, high ones fast association.
